SMILES strings stand for the structures. Starred links: 1 amine or outer side, 2 acyl side, 3 side chain; linkers in the order of their positions; H or OH if unused. Positions of bridges follow the written chain, without caps; N, C: chain ends. Non-standard residues stand in square brackets, D forms with d. Residues, ends and D or L forms follow the SMILES beside them. *: point of attachment. X12 = CCOCc1nc2c(NC(=O)OCCN(C)C(=O)OCc3ccc(NC(=O)[C@H](CCCNC(N)=O)NC(=O)[C@@H](NC(=O)Cn4cc(CCC(=O)*)nn4)C(C)C)cc3)nc3ccccc3c2n1CC(C)(C)O; X7 = CCOCc1nc2c(NC(=O)CCCNC(=O)OCc3ccc(NC(=O)[C@H](CCCNC(N)=O)NC(=O)[C@@H](NC(=O)Cn4cc(CCC(=O)*)nn4)C(C)C)cc3)nc3ccccc3c2n1CC(C)(C)O; X6 = CCN(Cc1nc2c(N)nc3ccccc3c2n1CC(C)(C)O)C(=O)OCc1ccc(NC(=O)[C@H](CCCNC(N)=O)NC(=O)[C@@H](NC(=O)Cn2cc(CCC(=O)*)nn2)C(C)C)cc1; X4 = CCN(Cc1nc2c(N)nc3ccccc3c2n1CC(C)(C)O)C(=O)OCc1ccc(NC(=O)[C@H](CCCNC(N)=O)NC(=O)C2(C(=O)*)CCC2)cc1; X8 = CCOCc1nc2c(NC(=O)OCc3ccc(NC(=O)[C@H](CCCNC(N)=O)NC(=O)C4(C(=O)*)CCC4)cc3)nc3ccccc3c2n1CC(C)(C)O; 1Nal = N[C@@H](Cc1cccc2ccccc12)C(=O)O; TBMB = c1c(C[*:1])cc(C[*:3])cc1C[*:2]; X5 = O=C(CCc1cn(CCCN[*:1])nn1)[*:2]; Tle = CC(C)(C)[C@H](N)C(=O)O; βAla = NCCC(=O)O; Sar = CNCC(=O)O

One data set is described as follows: Plasma stability, human. In kind it is in vitro ADME. Conditions: human, plasma, pH 7.4. As for the experimental part:
(§1) The pooled frozen mouse, rat, dog, monkey or human plasma is thawed in a water bath at 37° C. prior to experiment. Plasma is centrifuged at 4000 rpm for 5 min and the clots are removed if any. […] For positive controls, 100 μM intermediate solution is prepared by diluting 20 μL of the stock solution with 180 μL 45% MeOH/H2O. […] For compounds I-7 to […]-17, […]-22, and […]-33, at each time point (0, 1, 2, 4, 6 and 24 hr), reactions were stopped by removing the plates from water bath and 200 μL 20 mM NH4OAC mix well first and then adding 800 μL of ice-cold stop solution (200 ng/mL Labetalol, 200 ng/mL Tolbutamide, 500 ng/mL N6-Ben and 40 mM DBAA in 100% Methanol). […] Sample plates were vortexed immediately on a plate shaker at 800 rpm for 10 min and then centrifuged at 4,000 rpm for 10 min. An aliquot of supernatant (200 μL) is transferred from each well before submitting to LC-MS/MS analysis. The percentage of test compound remaining at the individual time points relative to the 0 hour sample is calculated using following equation: Percent Remaining=100×(PAR at appointed incubation time/PAR at T0 time) where PAR is the peak area ratio of analyte versus internal standard (IS).

A short description of another data set: Plasma stability, cyno. Conditions: cynomolgus monkey, plasma, pH 7.4. Type of data set: in vitro ADME. As for the experimental part:
as §1

The next data set in a line: Plasma stability, rat. In kind it is in vitro ADME. The note with it: rat, plasma, pH 7.4. The protocol:
as §1

Another data set in a line: Plasma stability, mouse. Type of data set: in vitro ADME. The note with it: mouse, plasma, pH 7.4. As for the experimental part:
as §1

The next data set is described as follows: Blood stability, mouse. The note with it: male, CD-1, mouse. Type of data set: in vitro ADME, CD-1 mouse. The protocol: CD-1 mouse blood (n≥2, male, fasted overnight) is collected from animals housed at an internal facility. (EDTA-K2 is used as anticoagulant)
The test compounds and positive control stock solutions are prepared to 10 mM in DMSO or ultrapure water. Control compounds bisacodyl, enalapril and propantheline known to be metabolised by blood are also incubated alongside each batch of test compounds I-7, I-22, I-24, I-25, I-27, and I-29 to I-33. The dosing solutions of test compounds and controls are prepared by diluting the stock solution with 45% MeOH/H2O to achieve 100 uM. Test compound solutions (final incubation concentration=2 μM) are incubated with blood (final DMSO concentration≤1%) at six different time points (0, 1, 2, 4, 6 and 24 hours) in duplicate (n=2). The reaction is terminated by adding 100 uL ultra-pure water, mixing well, then adding 800 uL of 100% methanol containing 200 ng/mL tolbutamide and 200 ng/mL labetalol as internal standards. Samples are then vortexed and centrifuged at 3200×g for 20 minutes. Following centrifugation, the concentration of test compound in the supernatant is determined semi-quantitatively by LC-MS/MS. The percentage of test compound remaining at the individual time points relative to the 0 hour sample is then reported. The percent remaining of test compound after incubation in blood is calculated using following equation: Percent Remaining=100×(PAR at appointed incubation time/PAR at T0 time) where PAR is the peak area ratio of analyte versus internal standard (IS).

As a reminder, the half-life is the time in which the quantity being followed falls by half. For the compound `CCOCc1nc2c(NC(=O)CCCNC(=O)OCc3ccc(NC(=O)[C@H](CCCNC(N)=O)NC(=O)[C@@H](NC(=O)Cn4cc(CCC(=O)NCCC(=O)N(C)CC(=O)N(C)CC(=O)N(C)CC(=O)N(C)CC(=O)N(C)CC(=O)N(C)CC(=O)N(C)CC(=O)N(C)CC(=O)N(C)CC(=O)N(C)CC(=O)N[C@@H](C)C(=O)N[C@H]5CSCc6cc7cc(c6)CSC[C@H](NC(=O)[C@@H](C)NC(=O)[C@H](Cc6cccc8ccccc68)NC(=O)[C@H](CCC(=O)O)NC(=O)[C@H](CC(N)=O)NC(=O)[C@@H](C)NC5=O)C(=O)N[C@@H](CCC(=O)O)C(=O)N[C@@H](CC(=O)O)C(=O)N[C@@H](Cc5ccccc5)C(=O)N[C@@H](Cc5ccc(O)cc5)C(=O)N[C@@H](CC(=O)O)C(=O)N[C@@H](C(C)(C)C)C(=O)N[C@H](C(N)=O)CSC7)nn4)C(C)C)cc3)nc3ccccc3c2n1CC(C)(C)O` [I-27] ({X7-βAla}-[Sar][Sar][Sar][Sar][Sar][Sar][Sar][Sar][Sar][Sar]AC[dA]NE[1Nal][dA]CEDFYD[Tle]C-NH2; linker 12-18-25 via TBMB), the half-life at 2 μM was over 24 h in “Plasma stability, human”; over 24 h in “Plasma stability, cyno”; over 24 h in “Plasma stability, rat”; under 2 h in the data set “Plasma stability, mouse”; 2 to 6 h in “Blood stability, mouse”.

With `CCOCc1nc2c(NC(=O)OCc3ccc(NC(=O)[C@H](CCCNC(N)=O)NC(=O)C4(C(=O)NCCCn5cc(CCC(=O)NCCC(=O)N(C)CC(=O)N(C)CC(=O)N(C)CC(=O)N(C)CC(=O)N(C)CC(=O)N(C)CC(=O)N(C)CC(=O)N(C)CC(=O)N(C)CC(=O)N(C)CC(=O)N[C@@H](C)C(=O)N[C@H]6CSCc7cc8cc(c7)CSC[C@H](NC(=O)[C@@H](C)NC(=O)[C@H](Cc7cccc9ccccc79)NC(=O)[C@H](CCC(=O)O)NC(=O)[C@H](CC(N)=O)NC(=O)[C@@H](C)NC6=O)C(=O)N[C@@H](CCC(=O)O)C(=O)N[C@@H](CC(=O)O)C(=O)N[C@@H](Cc6ccccc6)C(=O)N[C@@H](Cc6ccc(O)cc6)C(=O)N[C@@H](CC(=O)O)C(=O)N[C@@H](C(C)(C)C)C(=O)N[C@H](C(N)=O)CSC8)nn5)CCC4)cc3)nc3ccccc3c2n1CC(C)(C)O` [I-29] (X8-[X5][βAla][Sar][Sar][Sar][Sar][Sar][Sar][Sar][Sar][Sar][Sar]AC[dA]NE[1Nal][dA]CEDFYD[Tle]C-NH2; linker 14-20-27 via TBMB), the half-life at 2 μM in “Plasma stability, human” is over 24 h; in the data set “Plasma stability, cyno”, over 24 h; in “Plasma stability, rat” it was 6 to 24 h; in “Plasma stability, mouse”, over 24 h; in the data set “Blood stability, mouse”, under 2 h.

As to `CCN(Cc1nc2c(N)nc3ccccc3c2n1CC(C)(C)O)C(=O)OCc1ccc(NC(=O)[C@H](CCCNC(N)=O)NC(=O)C2(C(=O)NCCCn3cc(CCC(=O)NCCC(=O)N(C)CC(=O)N(C)CC(=O)N(C)CC(=O)N(C)CC(=O)N(C)CC(=O)N(C)CC(=O)N(C)CC(=O)N(C)CC(=O)N(C)CC(=O)N(C)CC(=O)N[C@@H](C)C(=O)N[C@H]4CSCc5cc6cc(c5)CSC[C@H](NC(=O)[C@@H](C)NC(=O)[C@H](Cc5cccc7ccccc57)NC(=O)[C@H](CCC(=O)O)NC(=O)[C@H](CC(N)=O)NC(=O)[C@@H](C)NC4=O)C(=O)N[C@@H](CCC(=O)O)C(=O)N[C@@H](CC(=O)O)C(=O)N[C@@H](Cc4ccccc4)C(=O)N[C@@H](Cc4ccc(O)cc4)C(=O)N[C@@H](CC(=O)O)C(=O)N[C@@H](C(C)(C)C)C(=O)N[C@H](C(N)=O)CSC6)nn3)CCC2)cc1` [I-30] (X4-[X5][βAla][Sar][Sar][Sar][Sar][Sar][Sar][Sar][Sar][Sar][Sar]AC[dA]NE[1Nal][dA]CEDFYD[Tle]C-NH2; linker 14-20-27 via TBMB), the half-life at 2 μM in “Plasma stability, human” was over 24 h; in “Plasma stability, cyno”, over 24 h; in the data set “Plasma stability, rat”, over 24 h; in “Plasma stability, mouse” it was over 24 h; in the data set “Blood stability, mouse” it was 6 to 24 h.

`CCOCc1nc2c(NC(=O)OCCN(C)C(=O)OCc3ccc(NC(=O)[C@H](CCCNC(N)=O)NC(=O)[C@@H](NC(=O)Cn4cc(CCC(=O)NCCC(=O)N(C)CC(=O)N(C)CC(=O)N(C)CC(=O)N(C)CC(=O)N(C)CC(=O)N(C)CC(=O)N(C)CC(=O)N(C)CC(=O)N(C)CC(=O)N(C)CC(=O)N[C@@H](C)C(=O)N[C@H]5CSCc6cc7cc(c6)CSC[C@H](NC(=O)[C@@H](C)NC(=O)[C@H](Cc6cccc8ccccc68)NC(=O)[C@H](CCC(=O)O)NC(=O)[C@H](CC(N)=O)NC(=O)[C@@H](C)NC5=O)C(=O)N[C@@H](CCC(=O)O)C(=O)N[C@@H](CC(=O)O)C(=O)N[C@@H](Cc5ccccc5)C(=O)N[C@@H](Cc5ccc(O)cc5)C(=O)N[C@@H](CC(=O)O)C(=O)N[C@@H](C(C)(C)C)C(=O)N[C@H](C(N)=O)CSC7)nn4)C(C)C)cc3)nc3ccccc3c2n1CC(C)(C)O` [I-32] ({X12-βAla}-[Sar][Sar][Sar][Sar][Sar][Sar][Sar][Sar][Sar][Sar]AC[dA]NE[1Nal][dA]CEDFYD[Tle]C-NH2; linker 12-18-25 via TBMB): the half-life at 2 μM in the data set “Plasma stability, human” was over 24 h; in the data set “Plasma stability, cyno”, over 24 h; in the data set “Plasma stability, rat”, under 2 h; in the data set “Plasma stability, mouse”, under 2 h; in the data set “Blood stability, mouse” it was under 2 h.

For `CCN(Cc1nc2c(N)nc3ccccc3c2n1CC(C)(C)O)C(=O)OCc1ccc(NC(=O)[C@H](CCCNC(N)=O)NC(=O)[C@@H](NC(=O)Cn2cc(CCC(=O)NCCC(=O)N(C)CC(=O)N(C)CC(=O)N(C)CC(=O)N(C)CC(=O)N(C)CC(=O)N(C)CC(=O)N(C)CC(=O)N(C)CC(=O)N(C)CC(=O)N(C)CC(=O)N[C@@H](C)C(=O)N[C@H]3CSCc4cc5cc(c4)CSC[C@H](NC(=O)[C@@H](C)NC(=O)[C@H](Cc4cccc6ccccc46)NC(=O)[C@H](CCC(=O)O)NC(=O)[C@H](CC(N)=O)NC(=O)[C@@H](C)NC3=O)C(=O)N[C@@H](CCC(=O)O)C(=O)N[C@@H](CC(=O)O)C(=O)N[C@@H](Cc3ccccc3)C(=O)N[C@@H](Cc3ccc(O)cc3)C(=O)N[C@@H](CC(=O)O)C(=O)N[C@@H](C(C)(C)C)C(=O)N[C@H](C(N)=O)CSC5)nn2)C(C)C)cc1` [I-33] ({X6-βAla}-[Sar][Sar][Sar][Sar][Sar][Sar][Sar][Sar][Sar][Sar]AC[dA]NE[1Nal][dA]CEDFYD[Tle]C-NH2; linker 12-18-25 via TBMB), the half-life at 2 μM in the data set “Plasma stability, human” was over 24 h; in the data set “Plasma stability, cyno”, over 24 h; in “Plasma stability, rat” it was over 24 h; in “Plasma stability, mouse” it was 6 to 24 h; in the data set “Blood stability, mouse” it was 6 to 24 h.

For the origin of these results see patent US20200283482A1, “BICYCLIC PEPTIDE LIGAND PRR-A CONJUGATES AND USES THEREOF” (BicycleRD Limited, priority 2017, published 2020).
